Measured values published in patent US5716622.

Target: Stat1α (human)
Test: co-immunoprecipitation with anti-FLAG M2 from COS cells with or without EGF, blot with Stat1 antiserum

## FLAG-tagged Stat3
  amount of Stat1 coprecipitated, treated cells against untreated cells: 5 fold
